Measurements as given in patent US20120238509A1.
No end group written: not given here. *: point of attachment. Acm = CC(=O)NC*

B1: mUcn 2 prohormone (peptide)
peptide: TPIPTFQLLPQNSLETTPSSVTSESSSGTTTGPSASWSNSKASPYLDTRVILSLDVPIGLLRILLEQARYKAARNQAATNAQILAHV
modifications: here or on the partner: amidated at the C-terminus
B2: hUcn 2 prohormone (peptide)
peptide: IPTFQLRPQNSPQTTPRPAASESPSAAPTWPWAAQSHCSPTRHPGSRIVLSLDVPIGLLQILLEQARARAAREQATTNARILARV
modifications: here or on the partner: amidated at the C-terminus
B3: [Cys^1, 51(Acm)]-hUcn2(1-51)-OH) (peptide)
peptide: C(Acm)SPTRHPGSRIVLSLDVPIGLLQILLEQARARAAREQATTNARILARVGHC(Acm)-OH

These binders were tested against CRFR^2 expressed by A7r5 cells, P47866 (assay: cell-based or functional assay).
Chain of CRFR^2 expressed by A7r5 cells, P47866 (P47866 20-411): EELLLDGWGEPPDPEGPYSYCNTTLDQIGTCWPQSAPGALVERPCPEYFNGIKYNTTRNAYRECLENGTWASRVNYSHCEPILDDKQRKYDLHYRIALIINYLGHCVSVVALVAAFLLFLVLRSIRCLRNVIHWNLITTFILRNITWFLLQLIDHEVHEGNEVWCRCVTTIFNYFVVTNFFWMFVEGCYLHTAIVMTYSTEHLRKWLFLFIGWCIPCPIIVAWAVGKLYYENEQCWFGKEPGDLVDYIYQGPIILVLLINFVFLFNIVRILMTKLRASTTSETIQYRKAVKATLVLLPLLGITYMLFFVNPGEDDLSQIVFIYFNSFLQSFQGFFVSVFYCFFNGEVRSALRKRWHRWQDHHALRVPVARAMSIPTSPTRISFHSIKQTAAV

Row | cAMP A7r5 (EC50, nM) | Binder
1 | 0.07 nM | VILSLDVPIGLLRILLEQARYKAARNQAATNAQILAHV-NH2 [mUcn 2]
2 | 0.53 nM | B1
3 | 2.9 nM | IVLSLDVPIGLLQILLEQARARAAREQATTNARILARVGH-OH [hUcn 2-GH-OH]
4 | 90.4 nM | IVLSLDVPIGLLQILLEQARARAAREQATTNARILARV-OH [hUcn 2-OH]
5 | 0.027 nM | RIVLSLDVPIGLLQILLEQARARAAREQATTNARILARV-NH2 [R^0-hUcn 2]
6 | 6.3 nM | IVLSLDVPIGLLQILLEQARARAAREQATTNARILARVG-OH [hUcn 2-G-OH]
7 | 0.11 nM | IVLSLDVPIGLLQILLEQARARAAREQATTNARILARV-NH2 [hUcn 2]
8 | 0.05 nM | RVILSLDVPIGLLRILLEQARYKAARNQAATNAQILAHV-NH2 [R^0-mUcn 2]
9 | 2.3 nM | B2
10 | 9.5 nM | B3
11 | 0.09 nM | HPGSRIVLSLDVPIGLLQILLEQARARAAREQATTNARILARV-NH2 [SRP (HPGSR-hUcn 2)]
12 | 13.9 nM | IVLSLDVPIGLLQILLEQARARAAREQATTNARILARVGHC-OH [hUcn 2-GHC-OH]
